# Results published in PMC3176292, “Mutations in Protein-Binding Hot-Spots on the Hub Protein Smad3 Differentially Affect Its Protein Interactions and Smad3-Regulated Gene Expression” (PLoS ONE, 2011).
# Where a chain is given by its changes, count along the chain named. Names may count otherwise.
# T1: Flag-SARA, full length (UniProt O95405 1-1425)
# T1 construct: SARA; plasmid pCMV5b-Flag-SARA; also called SARA FL; source: HEK-293, transfected, in lysate
# T1 sequence (looked up): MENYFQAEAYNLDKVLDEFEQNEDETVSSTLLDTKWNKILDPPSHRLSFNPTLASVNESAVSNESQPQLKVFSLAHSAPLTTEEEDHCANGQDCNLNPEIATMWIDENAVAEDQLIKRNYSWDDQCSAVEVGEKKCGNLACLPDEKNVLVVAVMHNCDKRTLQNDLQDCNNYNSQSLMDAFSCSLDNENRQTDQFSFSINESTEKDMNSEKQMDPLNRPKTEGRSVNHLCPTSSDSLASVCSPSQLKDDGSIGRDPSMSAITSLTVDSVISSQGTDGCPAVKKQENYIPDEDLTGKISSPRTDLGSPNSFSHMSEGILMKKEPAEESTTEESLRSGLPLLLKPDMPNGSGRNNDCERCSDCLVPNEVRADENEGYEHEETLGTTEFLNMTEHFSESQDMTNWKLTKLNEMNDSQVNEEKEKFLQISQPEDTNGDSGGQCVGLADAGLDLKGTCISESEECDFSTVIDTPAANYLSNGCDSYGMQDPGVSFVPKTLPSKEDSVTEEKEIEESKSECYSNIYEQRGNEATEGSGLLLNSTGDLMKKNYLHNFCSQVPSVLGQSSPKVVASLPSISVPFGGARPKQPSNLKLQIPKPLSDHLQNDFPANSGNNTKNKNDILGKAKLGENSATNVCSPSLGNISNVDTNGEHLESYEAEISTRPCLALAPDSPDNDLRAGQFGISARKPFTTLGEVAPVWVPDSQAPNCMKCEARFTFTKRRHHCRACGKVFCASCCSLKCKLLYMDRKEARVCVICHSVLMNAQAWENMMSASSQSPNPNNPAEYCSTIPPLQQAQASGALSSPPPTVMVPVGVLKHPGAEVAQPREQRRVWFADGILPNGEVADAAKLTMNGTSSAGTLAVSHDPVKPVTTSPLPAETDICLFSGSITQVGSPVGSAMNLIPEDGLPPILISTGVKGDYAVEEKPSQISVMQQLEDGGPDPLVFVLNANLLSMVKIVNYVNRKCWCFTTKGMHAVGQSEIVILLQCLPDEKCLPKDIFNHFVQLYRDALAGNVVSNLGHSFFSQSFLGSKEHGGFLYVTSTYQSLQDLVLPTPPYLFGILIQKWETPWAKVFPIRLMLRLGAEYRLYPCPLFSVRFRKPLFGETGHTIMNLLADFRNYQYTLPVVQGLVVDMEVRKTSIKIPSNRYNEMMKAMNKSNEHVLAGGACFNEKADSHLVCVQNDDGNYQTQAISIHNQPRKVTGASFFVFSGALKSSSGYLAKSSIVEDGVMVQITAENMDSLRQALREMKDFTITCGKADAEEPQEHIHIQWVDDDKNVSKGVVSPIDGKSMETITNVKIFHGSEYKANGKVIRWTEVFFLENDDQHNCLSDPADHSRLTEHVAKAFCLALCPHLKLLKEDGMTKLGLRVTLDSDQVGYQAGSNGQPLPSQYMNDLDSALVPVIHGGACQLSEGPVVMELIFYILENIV
# T2: Flag-Smad4, full length (UniProt Q13485 1-552)
# T2 construct: Smad4; plasmid pCMV5-Flag-Smad4 (from J. Massagué); also called Smad4 FL; source: HEK-293, transfected, in lysate
# T2 sequence (looked up): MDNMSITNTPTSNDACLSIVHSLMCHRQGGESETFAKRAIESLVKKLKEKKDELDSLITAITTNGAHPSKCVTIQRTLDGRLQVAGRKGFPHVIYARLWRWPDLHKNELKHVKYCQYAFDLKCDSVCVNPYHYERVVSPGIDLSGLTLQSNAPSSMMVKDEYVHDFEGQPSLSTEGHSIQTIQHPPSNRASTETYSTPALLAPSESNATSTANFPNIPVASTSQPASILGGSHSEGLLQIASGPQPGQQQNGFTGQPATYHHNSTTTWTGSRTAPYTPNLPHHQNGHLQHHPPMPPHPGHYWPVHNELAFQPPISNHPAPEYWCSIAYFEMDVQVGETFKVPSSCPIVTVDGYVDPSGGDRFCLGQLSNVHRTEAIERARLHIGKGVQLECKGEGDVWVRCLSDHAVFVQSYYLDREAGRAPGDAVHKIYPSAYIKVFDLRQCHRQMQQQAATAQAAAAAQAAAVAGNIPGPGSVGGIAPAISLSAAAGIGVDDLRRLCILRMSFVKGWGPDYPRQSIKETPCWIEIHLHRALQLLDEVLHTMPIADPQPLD
# B1: Renilla luciferase-Smad3 D408H (natural protein, UniProt P84022 1-425, looked up)
# chain: MSSILPFTPPIVKRLLGWKKGEQNGQEEKWCEKAVKSLVKKLKKTGQLDELEKAITTQNVNTKCITIPRSLDGRLQVSHRKGLPHVIYCRLWRWPDLHSHHELRAMELCEFAFNMKKDEVCVNPYHYQRVETPVLPPVLVPRHTEIPAEFPPLDDYSHSIPENTNFPAGIEPQSNIPETPPPGYLSEDGETSDHQMNHSMDAGSPNLSPNPMSPAHNNLDLQPVTYCEPAFWCSISYYELNQRVGETFHASQPSMTVDGFTDPSNSERFCLGLLSNVNRNAAVELTRRHIGRGVRLYYIGGEVFAECLSDSAIFVQSPNCNQRYGWHPATVCKIPPGCNLKIFNNQEFAALLAQSVNQGFEAVYQLTRMCTIRMSFVKGWGAEYRRQTVTSTPCWIELHLNGPLQWLHKVLTQMGSPSIRCSSVS
# notes: Smad3; source: HEK-293, transfected together with constitutively active Alk5, in lysate
# B2: Renilla luciferase-Smad3 Y384A (natural protein, UniProt P84022 1-425, looked up)
# chain: B1 chain with Y384A, H408D
# notes: as for B1
# B3: Renilla luciferase-Smad3 R243A (natural protein, UniProt P84022 1-425, looked up)
# chain: B1 chain with R243A, H408D
# notes: as for B1
# B4: Renilla luciferase-Smad3 R292A (natural protein, UniProt P84022 1-425, looked up)
# chain: B1 chain with R292A, H408D
# notes: as for B1
# B5: Renilla luciferase-Smad3 R268A (natural protein, UniProt P84022 1-425, looked up)
# chain: B1 chain with R268A, H408D
# notes: as for B1
# B6: Renilla luciferase-Smad3 Y238A (natural protein, UniProt P84022 1-425, looked up)
# chain: B1 chain with Y238A, H408D
# notes: as for B1
# B7: Renilla luciferase-Smad3 C338A (natural protein, UniProt P84022 1-425, looked up)
# chain: B1 chain with C338A, H408D
# notes: as for B1
# B8: Renilla luciferase-Smad3 W326A (natural protein, UniProt P84022 1-425, looked up)
# chain: B1 chain with W326A, H408D
# notes: as for B1
# B9: Renilla luciferase-Smad3 S254A (natural protein, UniProt P84022 1-425, looked up)
# chain: B1 chain with S254A, H408D
# notes: as for B1
# B10: Renilla luciferase-Smad3 K341A (natural protein, UniProt P84022 1-425, looked up)
# chain: B1 chain with K341A, H408D
# notes: as for B1
# B11: Renilla luciferase-Smad3 Q322A/Y324A (natural protein, UniProt P84022 1-425, looked up)
# chain: B1 chain with Q322A, Y324A, H408D
# notes: as for B1
# B12: Renilla luciferase-Smad3 Y297A (natural protein, UniProt P84022 1-425, looked up)
# chain: B1 chain with Y297A, H408D
# notes: as for B1
# B13: Renilla luciferase-Smad3 W406A (natural protein, UniProt P84022 1-425, looked up)
# chain: B1 chain with W406A, H408D
# notes: as for B1
# B14: Renilla luciferase-Smad3 V356R (natural protein, UniProt P84022 1-425, looked up)
# chain: B1 chain with V356R, H408D
# notes: as for B1
# B15: Renilla luciferase-Smad3 L340A (natural protein, UniProt P84022 1-425, looked up)
# chain: B1 chain with L340A, H408D
# notes: as for B1
# B16: Renilla luciferase-Smad3 E267A (natural protein, UniProt P84022 1-425, looked up)
# chain: B1 chain with E267A, H408D
# notes: as for B1
# B17: Renilla luciferase-Smad3 V224A (natural protein, UniProt P84022 1-425, looked up)
# chain: B1 chain with V224A, H408D
# notes: as for B1
# B18: Renilla luciferase-Smad3 Y298A (natural protein, UniProt P84022 1-425, looked up)
# chain: B1 chain with Y298A, H408D
# notes: as for B1
# B19: Renilla luciferase-Smad3 P335A/P336A (natural protein, UniProt P84022 1-425, looked up)
# chain: B1 chain with P335A, P336A, H408D
# notes: as for B1
# B20: Renilla luciferase-Smad3 Y226A (natural protein, UniProt P84022 1-425, looked up)
# chain: B1 chain with Y226A, H408D
# notes: as for B1
# Target: T3, Flag-Smad3, full length (UniProt P84022 1-425)
# T3 construct: Smad3; plasmid pCMV5-Flag-Smad3 (from J. Massagué); bait for Smad3-Smad3 association; also called Smad3 FL; source: HEK-293, transfected together with constitutively active Alk5, in lysate
# Assay: co-IP; LUMIER: Renilla luciferase-Smad3 and Flag-tagged partner co-expressed with constitutively active Alk5 in HEK-293; Flag protein captured from cleared lysate (TNE: 10 mM Tris-HCl pH 7.8, 150 mM NaCl, 1 mM EDTA, 1% Igepal CA-630) on anti-Flag 96-well plates, 2 h at 4 °C; co-precipitated Renilla luciferase activity, TrxGA background subtracted, percent of wild-type Smad3
# Conditions: partners not purified
row,percent binding relative to wild-type Smad3 [%],Binder
1,30,B1
2,28,B2
3,46,B3
4,49,B4
5,27,B5
6,24,B6

# Target: T1, Flag-SARA, full length
# Assay: as above
# Conditions: partners not purified
row,percent binding relative to wild-type Smad3 [%],Binder
1,168,B1
2,178,B2
3,181,B3
4,120,B4
5,159,B5
6,162,B6

# Target: T1, Flag-SARA, full length
# Assay: as above
# Conditions: partners not purified
# Remark: another data set of the same source
row,percent binding relative to wild-type Smad3 [%],Binder
1,136,B7
2,13,B8
3,154,B9
4,29,B10
5,12,B11
6,38,B12
7,12,B13
8,16,B14
9,58,B15
10,82,B16
11,42,B17
12,150,B18
13,16,B19
14,32,B20

# Target: T2, Flag-Smad4, full length
# Assay: as above
# Conditions: partners not purified
row,percent binding relative to wild-type Smad3 [%],Binder
1,125,B7
2,194,B8
3,101,B9
4,275,B10
5,124,B11
6,109,B13
7,233,B14
8,181,B15
9,458,B16
10,122,B17
11,120,B18
12,309,B19
13,110,B20
